The target of this assay is long form of human LepR (LepRb), full length, on HEK293T cells (human) (UniProt P48357). Kind of assay: flow cytometry on cells. Background: In flow cytometry, cells or beads pass a laser one at a time.

pKd: −log10 of the molar value.

Sequence of UniProt P48357 (P48357 22-1165): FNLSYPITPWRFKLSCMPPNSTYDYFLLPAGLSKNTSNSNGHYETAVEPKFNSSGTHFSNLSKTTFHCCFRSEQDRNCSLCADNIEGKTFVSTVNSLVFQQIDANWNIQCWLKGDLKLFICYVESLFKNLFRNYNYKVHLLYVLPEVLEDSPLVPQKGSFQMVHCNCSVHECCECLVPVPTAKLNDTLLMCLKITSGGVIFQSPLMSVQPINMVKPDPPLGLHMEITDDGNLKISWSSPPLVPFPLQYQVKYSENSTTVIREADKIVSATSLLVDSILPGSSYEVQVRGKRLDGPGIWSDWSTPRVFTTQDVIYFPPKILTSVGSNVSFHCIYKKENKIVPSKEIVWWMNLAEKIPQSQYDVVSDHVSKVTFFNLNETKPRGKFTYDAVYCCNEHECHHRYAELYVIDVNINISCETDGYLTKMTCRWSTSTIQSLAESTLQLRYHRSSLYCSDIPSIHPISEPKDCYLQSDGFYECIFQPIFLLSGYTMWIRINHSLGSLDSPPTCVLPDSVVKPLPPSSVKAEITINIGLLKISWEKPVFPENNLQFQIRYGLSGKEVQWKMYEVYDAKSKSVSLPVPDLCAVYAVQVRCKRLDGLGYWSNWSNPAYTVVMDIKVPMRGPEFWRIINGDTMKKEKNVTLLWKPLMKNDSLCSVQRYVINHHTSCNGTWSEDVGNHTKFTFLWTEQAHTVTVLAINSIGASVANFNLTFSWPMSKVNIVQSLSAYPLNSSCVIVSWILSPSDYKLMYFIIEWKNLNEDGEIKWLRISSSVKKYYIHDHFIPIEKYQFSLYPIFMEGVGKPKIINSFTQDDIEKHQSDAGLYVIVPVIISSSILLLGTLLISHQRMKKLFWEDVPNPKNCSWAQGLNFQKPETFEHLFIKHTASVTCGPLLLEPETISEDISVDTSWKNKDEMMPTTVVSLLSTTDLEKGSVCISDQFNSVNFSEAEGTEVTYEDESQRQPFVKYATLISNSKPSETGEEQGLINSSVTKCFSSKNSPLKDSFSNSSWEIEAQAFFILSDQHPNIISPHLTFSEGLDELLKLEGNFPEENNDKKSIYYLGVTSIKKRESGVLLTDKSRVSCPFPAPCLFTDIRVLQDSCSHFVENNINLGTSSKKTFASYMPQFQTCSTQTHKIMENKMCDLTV

Regarding FITC-labeled rASRA (natural protein), the pKd is 8.66.

What is called pKd is −log10 of the Kd, conventionally taken in molar units. A lower pKd goes with a large Kd.

The record behind these values is PMC10515849.
